Consider 94 variants from the supplement of paper PMC10567573.

First the molecules themselves.
B1: FUNDC2 (parent)
chain: YIKVDWQRVEKDMKKAKEQLKIRK
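Further: lentivirally expressed fusions sorted by FACS into six bins by GFP to DsRed ratio, PSI derived from sequencing read proportions per bin multiplied by bin number.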

In the data set the parent is B1. As to the kind of experiment: protein stability index of a GFP-peptide fusion (GPS, HEK-293T) (PSI 1-6); higher = more stable. The conditions noted are these: c terminus: a fixed tail appended.
For YIKVDWQYVEKDMKKAKEQLKIRK [R8Y], the protein stability index came out at 1.62. The figure for YIKVDWQRVEKDLKKAKEQLKIRK [M13L] is 1.63. The value for YIKVDWQRVEKDDKKAKEQLKIRK [M13D] was 1.83.

For the variant YIKVDWQRVEKDQKKAKEQLKIRK [M13Q], the protein stability index was determined as 1.82. For the variant YIKVDWQRVEKDTKKAKEQLKIRK [M13T], the protein stability index came to 1.4. With YIKVDWQRVEKDNKKAKEQLKIRK [M13N], the protein stability index came out at 2.3. Regarding YIKVDWQRVEKDFKKAKEQLKIRK [M13F], the protein stability index is 1.79. The value for YIKVDWQRVEKDHKKAKEQLKIRK [M13H] was 1.82; that for YIKVDWQRVEKDAKKAKEQLKIRK [M13A] was 1.24. In the case of YIKVDWQRVEKDSKKAKEQLKIRK [M13S], the protein stability index was determined as 2.21.

As for YIKVDWQRVEKDPKKAKEQLKIRK [M13P], the protein stability index was found to be 1.17. In the case of YIKVDWQRVEKDYKKAKEQLKIRK [M13Y], the protein stability index turned out to be 2.14. Turning to YIKVDWQRVEKDGKKAKEQLKIRK [M13G], the protein stability index was determined as 2.32.

As to YIKVDWQRVEKDKKKAKEQLKIRK [M13K], the protein stability index is 1.92. Regarding YIKVDWQRVEKDEKKAKEQLKIRK [M13E], the protein stability index turned out to be 1.87. As for YIKVDWQRVEKDVKKAKEQLKIRK [M13V], the protein stability index came out at 1.95. Turning to YIKVDWQRVEKDCKKAKEQLKIRK [M13C], the protein stability index was determined as 1.73. As to YIKVDWQRVEKDWKKAKEQLKIRK [M13W], the protein stability index was found to be 2.29.

For YIKVDWQRVEKDIKKAKEQLKIRK [M13I], the protein stability index came out at 1.89. With YIKVDWQRVEKDRKKAKEQLKIRK [M13R], the protein stability index came out at 2.29.

Regarding YIKVDWQRVEKDMKKAKSQLKIRK [E18S], the protein stability index turned out to be 2.46. In the case of YIKVDWQRVEKDMKKAKNQLKIRK [E18N], the protein stability index turned out to be 1.72. The figure for YIKVDWQRVEKDMKKAKHQLKIRK [E18H] is 2.41; for YIKVDWQRVEKDMKKAKMQLKIRK [E18M] it is 1.59. Regarding YIKVDWQRVEKDMKKAKLQLKIRK [E18L], the protein stability index is 2.12. For YIKVDWQRVEKDMKKAKWQLKIRK [E18W], the protein stability index was found to be 1.16. With YIKVDWQRVEKDMKKAKYQLKIRK [E18Y], the protein stability index was 1.84.

YIKVDWQRVEKDMKKAKQQLKIRK [E18Q]: the protein stability index was 1.99. Consider YIKVDWQRVEKDMKKAKVQLKIRK [E18V], for which the protein stability index came to 1.69. Turning to YIKVDWQRVEKDMKKAKDQLKIRK [E18D], the protein stability index was found to be 1.44. With YIKVDWQRVEKDMKKAKAQLKIRK [E18A], the protein stability index stood at 1.97.

YIKVDWQRVEKDMKKAKPQLKIRK [E18P]: the protein stability index is 2.48. The figure for YIKVDWQRVEKDMKKAKFQLKIRK [E18F] is 1.65; for YIKVDWQRVEKDMKKAKKQLKIRK [E18K] it is 1.84; for YIKVDWQRVEKDMKKAKIQLKIRK [E18I] it is 2.41.

Regarding YIKVDWQRVEKDMKKAKRQLKIRK [E18R], the protein stability index is 1.57. Regarding YIKVDWQRVEIDMKKAKEQLKIRK [K11I], the protein stability index was 1.78. Take YIKVDWQRVEYDMKKAKEQLKIRK [K11Y]: the protein stability index amounted to 1.55. With YIKVDWQRVESDMKKAKEQLKIRK [K11S], the protein stability index worked out at 1.97. YIKVDWQRVERDMKKAKEQLKIRK [K11R]: the protein stability index came to 2.09. Regarding YIKVDWQRVEFDMKKAKEQLKIRK [K11F], the protein stability index was determined as 1.64.

Take YIKVDWQRVENDMKKAKEQLKIRK [K11N]: the protein stability index was 2.59. The figure for YIKVDWQRVECDMKKAKEQLKIRK [K11C] is 1.53; for YIKVDWQRVEADMKKAKEQLKIRK [K11A] it is 2.37; for YIKVDWQRVEDDMKKAKEQLKIRK [K11D] it is 2.06.

As for YIKVDWQRVEVDMKKAKEQLKIRK [K11V], the protein stability index turned out to be 2.16.

With YIKVDWQRVEHDMKKAKEQLKIRK [K11H], the protein stability index was determined as 1.95. Turning to YIKVDWQRVEQDMKKAKEQLKIRK [K11Q], the protein stability index came out at 2.12.

For YIKVDWQRVEMDMKKAKEQLKIRK [K11M], the protein stability index amounted to 1.57.

For the variant YIKVDWQRVETDMKKAKEQLKIRK [K11T], the protein stability index amounted to 2.56. On to YIKVDWQRVEPDMKKAKEQLKIRK [K11P], for which the protein stability index came to 2.5. The figure for YIKVDWQRVELDMKKAKEQLKIRK [K11L] is 1.46; for YIKVDWQRVEGDMKKAKEQLKIRK [K11G] it is 1.2; for YIKVDWQRVEEDMKKAKEQLKIRK [K11E] it is 2.01. In the case of YIKVDWQRIEKDMKKAKEQLKIRK [V9I], the protein stability index stood at 2.28. As for YIKVDWQRNEKDMKKAKEQLKIRK [V9N], the protein stability index was determined as 2.37. YIKVDWQRSEKDMKKAKEQLKIRK [V9S]: the protein stability index worked out at 1.91. The figure for YIKVDWQRREKDMKKAKEQLKIRK [V9R] is 1.73.

As for YIKVDWQRPEKDMKKAKEQLKIRK [V9P], the protein stability index was determined as 1.81. The figure for YIKVDWQRTEKDMKKAKEQLKIRK [V9T] is 1.66. As for YIKVDWQRFEKDMKKAKEQLKIRK [V9F], the protein stability index worked out at 1.54. For the variant YIKVDWQRQEKDMKKAKEQLKIRK [V9Q], the protein stability index came to 2.16. Regarding YIKVDWQRCEKDMKKAKEQLKIRK [V9C], the protein stability index is 1.94. In the case of YIKVDWQRYEKDMKKAKEQLKIRK [V9Y], the protein stability index was determined as 1.67. For YIKVDWQRAEKDMKKAKEQLKIRK [V9A], the protein stability index was found to be 1.5.

On to YIKVDWQRKEKDMKKAKEQLKIRK [V9K], for which the protein stability index was determined as 2.45. In the case of YIKVDWQRGEKDMKKAKEQLKIRK [V9G], the protein stability index was found to be 1.95. The figure for YIKVDWQRMEKDMKKAKEQLKIRK [V9M] is 1.26; for YIKVDWQRLEKDMKKAKEQLKIRK [V9L] it is 2.04; for YIKVDWQREEKDMKKAKEQLKIRK [V9E] it is 2.56. Take YIKVDWQRDEKDMKKAKEQLKIRK [V9D]: the protein stability index is 2.62. The figure for YIKVDWQRWEKDMKKAKEQLKIRK [V9W] is 1.99. Regarding YIKVDWQRHEKDMKKAKEQLKIRK [V9H], the protein stability index stood at 1.61.

Turning to YIKVDWQRVEKDMKKIKEQLKIRK [A16I], the protein stability index was 2.06. Regarding YIKVDWQRVEKDMKKPKEQLKIRK [A16P], the protein stability index came out at 2.13. With YIKVDWQRVEKDMKKQKEQLKIRK [A16Q], the protein stability index turned out to be 3. The value for YIKVDWQRVEKDMKKDKEQLKIRK [A16D] was 1.78; that for YIKVDWQRVEKDMKKTKEQLKIRK [A16T] was 1.89; that for YIKVDWQRVEKDMKKMKEQLKIRK [A16M] was 1.85. As for YIKVDWQRVEKDMKKYKEQLKIRK [A16Y], the protein stability index worked out at 1.98. With YIKVDWQRVEKDMKKVKEQLKIRK [A16V], the protein stability index was determined as 1.38. For YIKVDWQRVEKDMKKLKEQLKIRK [A16L], the protein stability index worked out at 1.95.

On to YIKVDWQRVEKDMKKHKEQLKIRK [A16H], for which the protein stability index worked out at 2.4. Consider YIKVDWQRVEKDMKKFKEQLKIRK [A16F], for which the protein stability index came to 2.16. The value for YIKVDWQRVEKDMKKWKEQLKIRK [A16W] was 1.94; that for YIKVDWQRVEKDMKKRKEQLKIRK [A16R] was 2.08; that for YIKVDWQRVEKDMKKSKEQLKIRK [A16S] was 1.75. In the case of YIKVDWQRVEKDMKKEKEQLKIRK [A16E], the protein stability index was determined as 1.43. Consider YIKVDWQRVEKDMKKGKEQLKIRK [A16G], for which the protein stability index came to 1.89.

In the case of YIKVDWQRVEKDMKKCKEQLKIRK [A16C], the protein stability index was found to be 2.08. On to YIKVDWQRVEKDMKKKKEQLKIRK [A16K], for which the protein stability index was found to be 1.83.

Take YIKVDWQRVEKDMSKAKEQLKIRK [K14S]: the protein stability index came to 2.03. As for YIKVDWQRVEKDMRKAKEQLKIRK [K14R], the protein stability index was determined as 2.12. Regarding YIKVDWQRVEKDMHKAKEQLKIRK [K14H], the protein stability index was determined as 1.14.
